Columns and labels:
[1] = test system: 67PfluR64PP RNA polymerase
[2] = test system: phi15 RNA polymerase
[3] = test system: PPPL-1 RNA polymerase
[4] = test system: Pf-10 RNA polymerase

With 67PfluR64PP lysozyme the “reduction of msfGFP output upon lysozyme induction (P. putida, 4 mM Rha)” value [1] was 67PfluR64PP (-51%) and the “reduction of leaky msfGFP expression caused by the phi15 RNAP (P. putida, 4 mM Rha)” value [2] was “The 67PfluR64PP lysozyme reduced the leaky expression by 58%”.
With PPPL-1 lysozyme the “reduction of msfGFP output upon lysozyme induction (P. putida, 4 mM Rha)” value [3] was “PPPL-1 (-39%)”.
For Pf-10 lysozyme, the “reduction of msfGFP output upon lysozyme induction (P. putida, 4 mM Rha)” value [4] was “Pf-10 (-80%)”.
In the case of phi15 lysozyme (G3RQ), the “dynamic range of the system (fold induction), lysozyme integrated in PP4305, P. putida SEM11” value [2] is reported as “the dynamic range of the system increased from 33 to 107- and 70-fold, respectively” and the “dynamic range of the system (fold induction), lysozyme integrated in PP5388, P. putida SEM11” value [2] is reported as “the dynamic range of the system increased from 33 to 107- and 70-fold, respectively”.
phi15 lysozyme (wild-type) was tested, and the “reduction of msfGFP output upon lysozyme induction (P. putida, 4 mM Rha)” value [2] was “The phi15 lysozyme caused only a -30% reduction of the msfGFP output”.
